The series addresses cell-surface nucleolin (NCL) (UniProt P19338). The series is described as follows: competition. Conditions: MST: 300 nM FAM-aptamer, NCL 1.95 nM-4 uM, binding buffer not specified, 25 C, 15 min; AP1-AP6 and Mut folded in 100 mM KCl, 10 mM K3PO4 pH 7.0; AS1411 in …; scale: % decrease of anti-NCL fluorescence at 4 uM.

cell-surface nucleolin (NCL), sequence (P19338 whole entry): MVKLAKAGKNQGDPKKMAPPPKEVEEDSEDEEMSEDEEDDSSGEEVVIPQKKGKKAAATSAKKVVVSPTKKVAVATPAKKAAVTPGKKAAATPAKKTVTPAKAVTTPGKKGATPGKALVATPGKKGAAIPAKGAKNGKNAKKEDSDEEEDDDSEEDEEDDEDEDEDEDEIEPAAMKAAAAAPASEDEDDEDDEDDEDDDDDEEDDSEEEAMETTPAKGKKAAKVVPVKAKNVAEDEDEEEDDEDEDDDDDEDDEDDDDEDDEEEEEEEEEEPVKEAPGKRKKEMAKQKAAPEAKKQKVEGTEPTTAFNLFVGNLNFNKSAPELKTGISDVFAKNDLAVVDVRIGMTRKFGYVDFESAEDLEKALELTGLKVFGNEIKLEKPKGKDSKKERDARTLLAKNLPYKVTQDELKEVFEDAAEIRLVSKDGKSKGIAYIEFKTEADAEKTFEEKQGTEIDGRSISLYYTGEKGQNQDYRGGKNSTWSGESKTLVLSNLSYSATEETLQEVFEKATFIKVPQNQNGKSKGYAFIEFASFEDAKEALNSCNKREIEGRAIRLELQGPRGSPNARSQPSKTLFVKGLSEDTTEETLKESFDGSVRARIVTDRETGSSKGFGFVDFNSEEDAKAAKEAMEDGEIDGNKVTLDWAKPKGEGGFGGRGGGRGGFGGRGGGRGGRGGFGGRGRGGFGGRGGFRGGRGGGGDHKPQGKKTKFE

Consider GUUAGGGUUUGGGAUUG [AP1], for which the binding signal amounted to 50.
